Reference: US20090036380A1 (YEDA RESEARCH AND DEVELOPMENT, published 2009)
Ends that are not written are not given here.

T1: recombinant PTB-domain containing Karet(1-228) truncation mutant (mouse, UniProt Q8K2Y9 1-228)
T1 construct: Recombinant protein for in-vitro precipitation; also called recombinant Karet protein; Karet PTB domain
T1 sequence: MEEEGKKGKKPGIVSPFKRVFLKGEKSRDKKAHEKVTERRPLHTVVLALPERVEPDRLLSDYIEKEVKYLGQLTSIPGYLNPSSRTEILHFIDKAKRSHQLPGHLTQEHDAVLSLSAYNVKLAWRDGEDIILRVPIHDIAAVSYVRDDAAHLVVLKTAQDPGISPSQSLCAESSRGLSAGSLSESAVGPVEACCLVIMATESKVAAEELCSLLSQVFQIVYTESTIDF


Key:
[1] = biological target: T2, full length Karet protein (RRS bait) (mouse, UniProt Q8K2Y9 1-453); experiment: RRS screen in yeast, whole Karet protein against an embryonic mouse brain library
T2 construct: Yeast RRS construct; fusion partner not described; also called whole Karet protein
Source text: The Ras rescue system (RRS) method is based on translocation of a mammalian cytoplasmic Ras to the plasma membrane, resulting in activation of a viability pathway in yeast (Broder, Y. C., S. Katz, and A. Aronheim. Curr Biol, 1998. 8 (20): p. 1121-4; Aronheim, A. Methods Mol Biol, 2004. 250: p. 251-62; Hubsman, M., G. et al. Nucleic Acids Res, 2001. 29 (4): p. E18).

[2] = biological target: T1, recombinant PTB-domain containing …; experiment: in-vitro precipitation with biotinylated peptide on streptavidin beads, blot anti-His

binding result [1] | binding result [2] | Binder
binds | – | Cyclin D1, mRNA (other, mouse, UniProt P25322 1-295, looked up, RRS library clone (embryonic mouse brain)) MEHQLLCCEVETIRRAYPDTNLLNDRVLRAMLKTEETCAPSVSYFKCVQKEIVPSMRKIVATWMLEVCEEQKCEEEVFPLAMNYLDRFLSLEPLKKSRLQLLGATCMFVASKMKETIPLTAEKLCIYTDNSIRPEELLQMELLLVNKLKWNLAAMTPHDFIEHFLSKMPEADENKQTIRKHAQTFVALCATDVKFISNPPSMVAAGSVVAAMQGLNLGSPNNFLSCYRTTHFLSRVIKCDPDCLRACQEQIEALLESSLRQAQQNVDPKATEEEGEVEEEAGLACTPTDVRDVDI
binds | – | Cysteine and glycine-rich protein 1 (Csrp1), mRNA (other, mouse, UniProt P97315 1-193, looked up, RRS library clone (embryonic mouse brain)) MPNWGGGKKCGVCQKTVYFAEEVQCEGNSFHKSCFLCMVCKKNLDSTTVAVHGEEIYCKSCYGKKYGPKGYGYGQGAGTLSTDKGESLGIKHEEAPGHRPTTNPNASKFAQKIGGSERCPRCSQAVYAAEKVIGAGKSWHKSCFRCAKCGKGLESTTLADKDGEIYCKGCYAKNFGPKGFGFGQGAGALVHSE
– | binds | MSLHFMTLGGSSLSPTEGKGSGLQGHI (also: biotinylated (position not given here), Immobilized on streptavidin beads; also called TrkA peptide) [biotinylated synthetic TrkA juxtamembrane region peptide, position 458-484]
